System: K4 kissing-loop RNA reporter
Experiment: apparent KD of K4 kissing-loop reporter; higher = weaker reporter binding
Conditions: Eterna round: R107
Description: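 RNA-MaP round R107: designed RNA switches with theophylline, tryptophan, arginine or FMN aptamers are transcribed on-chip within common flanks. They are titrated with a labelled K4 kissing-loop RNA reporter in RNA-MaP buffer (100 mM Tris pH 7.5, 80 mM KCl, 4 mM MgCl2), without ligand or with the indicated ligand. Median apparent KD per design.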

[1] = input ligand: theophylline 20 uM
[2] = input ligand: tryptophan 2.4 mM
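Further: bound reporter read as fluorescence of individual clusters on recovered sequencing chips by microscopy, with normalized cluster intensities fitted with a binding model.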

Sequence	apparent KD of K4 kissing-loop reporter (input ligand: FMN 200 uM) [nM]	apparent KD of K4 kissing-loop reporter (input ligand: arginine 13.2 mM) [nM]	apparent KD of K4 kissing-loop reporter (input ligand: none) [nM]	apparent KD of K4 kissing-loop reporter [1] [nM]	apparent KD of K4 kissing-loop reporter [2] [nM]
GAUAAUAGCACGGCCGCCACUGAAAAGCCGUGCUAUACGAGUGAUGUUCGUAAUUAUACGGGAUUCAGGACCGGGUGCAACGGUA [Tryp B SS t1]	122	115	139	158	98.1
GAUAAUUACGUAGGAUAUCCAUAUCCGCGGUCUUGAUGGAUUUUUACGAUCCAGUGAUGUUGGAUUGGAGAAGGACGGAGGCAAA [Arquedis]	289	392	403	435	362
GAUACACUUUCAGGUAUCCAGUGACUGGAUACCAGCAUGGAAACAUGCCCUUGGCAGCCAGAACUGGAAGUGAUGUUUCCAGUAA [Design7]	215	166	195	214	199
GAUCGAUGUCAGGAUACCAGCGGAAUCGUCGGAGACUCGAGUGGAGUGAUGUUCCCAGCACGCCCUUGGCAGCCUUGUUUAAGAU [theeternabot_sameState_KL_Theo_B_19]	312	199	318	404	310
GAUCUGAACGAAAGUUCGGAUCAGUCCGAUACCAGUAUGGAUUCAUACCCUUGGCAGCGGUUAUCUGCUAUGGAGUGAUGUUCCU [Theophylline A K4 12]	363	332	410	447	227
GAUGGCAUGCGAGGAUAUUGUACGGAGUGAUGUUCCCAUUAUCCAGGUAUUCGAUUGACGAGUAUCCAAGAAGGCGCAUGCCAUC	248	121	136	115	138
GAUUGUGAUGGAAACAUCGCAAUCUCUGAAGGAGCGCGUGAAAACGCAGGUAGGUCGCAGGACGACAAAGACAGUGAUGUUGUCG [Ex Arginine A K4 2]	446	424	554	504	416
GAUUGUGAUGGAAACAUCGCAAUCUCUGAAGGAGCGCGUGAAAACGCAGGUAGGUCGCAGGACGACUUUGACAGUGAUGUUGUCG [Ex Arginine A K4 4]	186	223	201	216	180
GCAAAACGCAGUGAUGUUGCGAUCUCGGAAGGAGCGCGUGAAAACGCAGGUAGGUCGCCGAGUCAGUGAGUAUCUCGCUGUUUGC [Arginine A K4 19]	383	352	489	455	322
GCAACAUUGGAAGGAUAUCAUUCUGAGUGAUGUUCAGGGUUCAGCUAACGAAAGUUAGUUGUACCAUGAGAAGGUCUAAUGUUGC [Omei KL FMN B SS A v4]	332	646	1610	1220	1010
GCAACAUUGGGAGGAUAUCAUUCUGAGUGAUGUUCAGGGUUCAGCUAACGAAAGUUAGUUGUACCAUGAGAAGGCCUAAUGUUGC [Omei KL FMN B SS A v2]	287	769	964	867	961
GCACGAGUGAUGUUCGUUGGCAUGCAUUCCGAGGAUAUGGGAUUAGCCAGAAGGCGGAAUCGGUCUUCGAGUGAUGUUCGAAGAU [Same State FMN A GF 13]	104	87.8	113	87.2	109
GCACUCGAAAGAGUGCCUCUCGCCAUCACGUAGGAUAUCUGGAAACAGAGAAGGAUGGCAGUGAUGUUGCUUUCGAUGGCGAGAG	165	137	180	174	188
GCAGAACGCAGUGAUGUUGCGAAAUCGGAAGGAGCGCGUGAAAACGCAGGUAGGUCGCCGACACAGGGAUUAUAUCCCUGUUUGC [Arginine A K4 17]	178	169	182	206	133
GCAGCAAAUAAACGAGUGAUGUUCGACGAUACCAGCCUCGAUAGAGGCCCUUGGCAGCGUAAAUGAUCACAAAGCCAAGGGCUGC [#SwitchBubble 1]	332	375	396	366	362
GCAGUGAUGUUGCACGAGUACGGUAGAGUACGAGGACCGGUACGGCCGCCACUCGUACGGAACUGGCUAAUUUAUGGAAUGGUGA [II]	383	463	1440	477	365
GCAGUGAUGUUGCUCGUUUCAUCGCGAGAUACCAGACCAUAUGAGGUCCCUUGGCAGCUCUAGUCAUCUGGUCCUUUUGCGUACU [theeternabot_exclusion_KL_Theo_A_2]	906	620	941	722	653
GCAUCCAUGGCAGGAUAUAGCUGAGUGAUGUUCAGGACCCAGUCAGUAUCCAUUACUACUGGACUUCUAGAAGGGCCAUGGAUGC	231	192	288	288	246
GCAUCCGAUGCAGGAUAUAGAUGAACGAGUGAUGUUUGGAAUUUAUGUCCAAAGCCUACGAUCAGACUAGAAGGGCAUCGGAUGC	147	75.4	122	197	164
GCAUCCUCUGCAGGAUAUCGCGGAGUGAUGUUCCGCGCAUGCCAUAGCGAAAGCUAUGGCAUGCGACGAGAAGGGCAGAGGAUGC	165	124	147	157	138
GCAUUGAGUGAUGUUUAAGCUUAGUCAUCACGAGGACCGGUACGGCCGCCACUCGUGCUUGGAGCGACCGAUACCCUAGAGACCC [theeternabot_sameState_KL_Trp_A_27]	160	62.5	61.7	247	193
GCCAGAGCGCGAAGGAGCGCCGUGACAGGUUGCUGCCGUGGGCAGUGAUGUUGCUCAGUCUGGCAGGUAGGUCGCGUGCUCUGGC	196	173	205	228	219
GCCCACAUUAGUGAUACCAGUGGGCACUCACCAGUUCAGUGAUGUUGGACGCAGUGUGGUCACCCUUGGCAGCACCGAUGCCCUU [theeternabot_sameState_KL_Theo_B_32]	129	128	122	122	129

Sequence	apparent KD of K4 kissing-loop reporter (input ligand: FMN 200 uM) [nM]	apparent KD of K4 kissing-loop reporter (input ligand: arginine 13.2 mM) [nM]	apparent KD of K4 kissing-loop reporter (input ligand: none) [nM]	apparent KD of K4 kissing-loop reporter [1] [nM]	apparent KD of K4 kissing-loop reporter [2] [nM]
GCCCUUCAGGUCGGAGUGAUGUUCCAAUGGAAGGAUAUCCGGGCUCGGAGAAGGUCCAAUUGUGUCUUGUUAAGGUGCUCACUAC [theeternabot_sameState_KL_FMN_A_46]	251	221	215	203	223
GCCGUACGCACGGAUACCAGCACUCGGUGAGUGAUGUUCACGGUGUGGUAUUCACCGGGCUGCCCUUGGCAGCCGUGCGUACGGC	375	301	343	1280	283
GCCGUACGCAUGGAUACCAGAGUCUUUCUAGUGCCUCUGGAGUACAGUGAUGUUGUGCCACUCCCUUGGCAGCCAUGCGUACGGC	1080	647	906	671	768
GCCGUACGCAUGGAUACCAGAUGGCACUAUAAUCUCCCAGAGUGAUGUUCUGGCCUGCCUAUCCCUUGGCAGCCAUGCGUACGGC	686	514	670	387	585
GCCGUACGCAUGGAUACCAGCACACAACGAAGUGAUGUUUCGUGCGUAGAUUUGUGCUACUGCCCUUGGCAGCCAUGCGUACGGC	86.6	69	82.2	69.3	78.6
GCCGUACGCAUGGAUACCAGCUAGACCGAGUGAUGUUCAGGUCUGAAUGCCGGUAUCAAGAGCCCUUGGCAGCCAUGCGUACGGC	382	265	301	329	292
GCCGUACGCAUGGAUACCAGCUAUUAGAGUGAUGUUCUAUGGCCCUGCCAAUGGAGCUGUAGCCCUUGGCAGCCAUGCGUACGGC	112	95.2	109	105	104
GCCGUACGCAUGGAUACCAGUCUUUCACGACUGGACAUGGAGUGAUGUUUCGUGAUGCUAGACCCUUGGCAGCCAUGCGUACGGC	255	198	242	329	210
GCCGUAGAUGGAAGGAGCGUGGUUAAUGUAAGUGAUGUUUACGAGGUUAACAAUUAACCGCCACAGGUAGGUCGCCAUCUACGGC	72.8	62.8	77.5	58.6	73.8
GCCGUAGAUUGAAGGAGCGACAUAAACGAUGUUCUGGUAGUGAUGUUACCUUAGCAGGCAUGUCAGGUAGGUCGCAAUCUACGGC	238	133	209	162	176
GCCGUAGAUUGAAGGAGCGAGGCUAAUUAAAGACCGAGUGAUGUUCGGGAGCGUGAAACUCCUCAGGUAGGUCGCAAUCUACGGC	217	180	204	186	180
GCCGUAGAUUGAAGGAGCGGACAGAUACGGGUAUCCAGUGAUGUUGGAAGGUAGCUACUAGUCCAGGUAGGUCGCAAUCUACGGC	283	111	304	286	164
GCCGUAGAUUGAAGGAGCGGCUUCAUCAAAUCUCUAGCCCACACCAGUGAUGUUGGUGUUAGCCAGGUAGGUCGCAAUCUACGGC	421	313	450	430	411
GCCGUAGAUUGAAGGAGCGGUAUGGGCGGUGGCUGAGUGAUGUUCAGGAAAAGUGGCUUCUACCAGGUAGGUCGCAAUCUACGGC	108	103	127	146	113
GCCUGGGCACGAAGGAGCGCCGUGACAGGUUACUGCCUUGGGCAGUGAUGUUGCUCAAUCUGGCAGGUAGGUCGCGUGCCCAGGC	162	162	161	159	168
GCGCAUGUUAAAGGAUAUAGCAGGUGAUACAAGAAAGUGAGUGAUGUUUAUGUAGAUGAUGAUAUGUUAGAAGGUUAACAAAAGC [abcdefghijklmn]	717	624	674	691	434
GCGCGCGGCGGAGGAUAUAGCCGGUGGUCCGGGAAAGUGAGUGAUGUUCGCGGAGUUCUGGAUAUGUUAGAAGGCCGCCGCGCGC [qwertyuiopasdfghjklzxcvbnm]	1010	857	1060	700	718
GCGCGGCAGGCGGCCGCCACUCUGACGAGCCACAGUGAUGUUGUGGUCGGAGUAACGUCUUCAUAGAGGACCGGGUUUGUUGUUC [Same State Typtophan A GF 26]	224	212	239	290	230
GCGCGGGAGUGAUGUUCCAAGUGGUGUUAACGAGGACCGGUACGGCCGCCACUCGUUACGGCCGGGCCGUAGGAUAAACUGGCGC [Same State - Tryptophan A (Freestyle 15)]	373	418	479	544	398
GCGCGGGAGUGAUGUUCCAAGUGGUGUUAGCGAGGACCGGUACGGCCGCCACUCGUUACGGGCGGCCCGUAGGAUACACUGGCGC [Same State - Tryptophan A (Freestyle 18)]	431	399	430	560	392
GCGCGUCAUGUCAGCGGUGACACUGUCGAUACCAGCGCCGAAAGGCGCCCUUGGCAGCGACGUGCUGGAGUGAUGUUCCAGCGUC [#2 Exclusion - Theophylline A Attempt #24 (HarryS)]	163	108	148	148	139
GCGCGUCAUGUCAGCGGUGACUAUGUCGAUACCAGCGCCGCAAGGCGCCCUUGGCAGCGACGCGCUGGAGUGAUGUUCCAGCGUG [#2 Exclusion - Theophylline A Attempt #10 (HarryS)]	148	118	140	144	124

— the supplement of paper PMC9170038
